Biological target: T1, CCK2R on AR42J cells (UniProt P30553 1-452, limits assumed)
T1 construct: whole, on cells
T1 sequence (looked up): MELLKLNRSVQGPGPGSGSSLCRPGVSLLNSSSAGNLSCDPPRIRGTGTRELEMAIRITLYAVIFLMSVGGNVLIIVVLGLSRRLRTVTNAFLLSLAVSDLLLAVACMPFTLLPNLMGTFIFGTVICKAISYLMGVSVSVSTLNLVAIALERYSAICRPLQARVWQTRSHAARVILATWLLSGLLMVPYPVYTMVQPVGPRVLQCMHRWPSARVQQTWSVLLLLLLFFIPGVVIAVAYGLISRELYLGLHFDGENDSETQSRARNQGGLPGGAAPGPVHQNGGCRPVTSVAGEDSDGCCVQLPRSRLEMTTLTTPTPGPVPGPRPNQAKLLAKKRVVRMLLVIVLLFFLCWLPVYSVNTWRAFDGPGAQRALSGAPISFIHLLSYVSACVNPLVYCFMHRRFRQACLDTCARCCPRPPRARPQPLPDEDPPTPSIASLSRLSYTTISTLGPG
Assay: displacement of ^125I-BH-CCK8 from AR42J cells
Procedure: For these experiments, AR42J cells were expanded in vitro in 175 mm flasks and grown to subconfluence in the growth medium containing 10% FCS. All binding assays were performed 36-48 h after seeding the cells in culture medium containing 10% FCS and 2% glutamine. Before the start of the binding assays, the cells in culture were washed with Hanks Balanced salt solution (HBSS) (GIBCO) containing 0.1% BSA and 25 mM HEPES (Sigma) and scraped with a rubber policeman into conical tissue culture polystyrene tubes. Cells were centrifuged at 500 g for 5 min and resuspended in HBSS at a concentration of 2×10⁶ cells/ml. Aliquots (˜1.0 ml) of suspended cells in polystyrene tubes were used in the binding assays. […] Binding assays were performed at 37° C. for 30-60 min at pH 6.5 (optimal for binding).
Non-specific binding was determined in the presence of 1000× excess of the non-labeled homologous peptide. At the end of the incubation, the cells were pelleted and washed twice with 1 ml of fresh ice-cold HBSS plus 0.1% BSA. Cell pellets were counted for ¹²⁵I in a gamma counter with ˜70% efficiency for ¹²⁵I.

binding result: no binding
B1: full-length recombinant human PG1-80 (rhPG) (ligand)
chain: SWKPRSQQPDAPLGTGANRDLELPWLEQQGPASHHRRQLGPQGPPHLVADPSKKQGPWLEEEEEAYGWMDFGRRSAEDEN
notes: Expressed in E. coli from pET32 as a thioredoxin fusion and purified; also called recombinant human progastrin; progastrin
